In patent US20130236944A1, “METHODS FOR THE INACTIVATION OF ANTIBIOTICS” (priority 2011, published 2013):

Assay: Inactivation of amoxicillin by lipases
Format: biochemical, Bacillus subtilis
Conditions: in 168 h, antibiotic 5.15 μg/, approximately 20° C.
Description: The plates are incubated 18 hours at 37° C.
In this example, the indicator bacterial strains sensitive to beta-lactam antibiotics (e.g. amoxicillin) and macrolide antibiotics were Bacillus subtilis (CIP 52.62) and Micrococcus luteus (CIP 53.45) respectively. All inactivation studies were performed with final antibiotic concentrations of 5.15 μg/. Lipases were used at final concentrations of 2.5 mg/mL (referred as ‘High concentration’) and 0.5 mg/mL (referred as ‘Low concentration’); they were obtained from Codexis.

B1: Lipase from Pseudomonas cepacia P1: Lipase from Pseudomonas cepacia (also called Bulkholderia cepacia) P1, obtained from Codexis (protein, UniProt P22088 45-364, looked up)
Triacylglycerol lipase: AAGYAATRYPIILVHGLSGTDKYAGVLEYWYGIQEDLQQNGATVYVANLSGFQSDDGPNGRGEQLLAYVKTVLAATGATKVNLVGHSQGGLSSRYVAAVAPDLVASVTTIGTPHRGSEFADFVQDVLAYDPTGLSSSVIAAFVNVFGILTSSSHNTNQDALAALQTLTTARAATYNQNYPSAGLGAPGSCQTGAPTETVGGNTHLLYSWAGTAIQPTLSVFGVTGATDTSTLPLVDPANVLDLSTLALFGTGTVMINRGSGQNDGLVSKCSALYGKVLSTSYKWNHLDEINQLLGVRGAYAEDPVAVIRTHANRLKLAGV
For B1, the Amoxicillin inactivation (enzyme H (High concentration, 2.5 mg/mL)) was “+++ in 168 h (100% inactivation = the residual concentration of antibiotic is smaller than the limit of detection of the microbiological test)” and the Amoxicillin inactivation (enzyme L (Low concentration, 0.5 mg/mL)) was “+++ in 168 h (100% inactivation = the residual concentration of antibiotic is smaller than the limit of detection of the microbiological test)”.
